This is an account of results in IntAct's records for PubMed 20696397.

B1: E3 ubiquitin-protein ligase RING2 (Homo sapiens), Q99496 (parent)
chain: MSQAVQTNGTQPLSKTWELSLYELQRTPQEAITDGLEIVVSPRSLHSELMCPICLDMLKNTMTTKECLHRFCADCIITALRSGNKECPTCRKKLVSKRSLRPDPNFDALISKIYPSRDEYEAHQERVLARINKHNNQQALSHSIEEGLKIQAMNRLQRGKKQQIENGSGAEDNGDSSHCSNASTHSNQEAGPSNKRTKTSDDSGLELDNNNAAMAIDPVMDGASEIELVFRPHPTLMEKDDSAQTRYIKTSGNATVDHLSKYLAVRLALEELRSKGESNQMNLDTASEKQYTIYIATASGQFTVLNGSFSLELVSEKYWKVNKPMELYYAPTKEHK
partner: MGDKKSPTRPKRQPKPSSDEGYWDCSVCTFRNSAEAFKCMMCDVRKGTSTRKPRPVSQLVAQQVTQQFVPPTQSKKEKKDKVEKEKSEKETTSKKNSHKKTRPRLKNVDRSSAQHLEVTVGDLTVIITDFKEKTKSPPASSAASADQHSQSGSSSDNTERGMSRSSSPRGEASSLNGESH
B2: Chromobox protein homolog 7 (Homo sapiens), O95931 (parent)
chain: MELSAIGEQVFAVESIRKKRVRKGKVEYLVKWKGWPPKYSTWEPEEHILDPRLVMAYEEKEERDRASGYRKRGPKPKRLLLQRLYSMDLRSSHKAKGKEKLCFSLTCPLGSGSPEGVVKAGAPELVDKGPLVPTLPFPLRKPRKAHKYLRLSRKKFPPRGPNLESHSHRRELFLQEPPAPDVLQAAGEWEPAAQPPEEEADADLAEGPPPWTPALPSSEVTVTDITANSITVTFREAQAAEGFFRDRSGKF

In the first assay the parent is B1. To be noted: with YAF2, Q8IY57-1.
For MSQAVQTNGTQPLSKTWELSLYELQRTPQEAITDGLEIVVSPRSLHSELMCPICLDMLKNTMTTKECLHRFCADCIITALRSGNKECPTCRKKLVSKRSLRPDPNFDALISKIYPSRDEYEAHQERVLARINKHNNQQALSHSIEEGLKIQAMNRLQRGKKQQIENGSGAEDNGDSSHCSNASTHSNQEAGPSNKRTKTSDDSGLELDNNNAAMAIDPVMDGASEIELVFRPHPTLMEKDDSAQTRYIKTSGNATVDALSKYLAVRLALEELRSKGESNQMNLDTASEKQYTIYIATASGQFTVLNGSFSLELVSEKYWKVNKPMELYYAPTKEHK [H258A], the “effect of a mutation on the interaction” value was “disrupting interaction”.

For the variant MSQAVQTNGTQPLSKTWELSLYELQRTPQEAITDGLEIVVSPRSLHSELMCPICLDMLKNTMTTKECLHRFCADCIITALRSGNKECPTCRKKLVSKRSLRPDPNFDALISKIYPSRDEYEAHQERVLARINKHNNQQALSHSIEEGLKIQAMNRLQRGKKQQIENGSGAEDNGDSSHCSNASTHSNQEAGPSNKRTKTSDDSGLELDNNNAAMAIDPVMDGASEIELVFRPHPTLMEKDDSAQTRYIKTSGNATVDHLSKALAVRLALEELRSKGESNQMNLDTASEKQYTIYIATASGQFTVLNGSFSLELVSEKYWKVNKPMELYYAPTKEHK [Y262A], the “effect of a mutation on the interaction” value is recorded as “disrupting interaction”.

Variants of B2 are the subject of a further assay. Particulars: with ring2_human RNF2, Q99496.
On to MELSAIGEQVFAVESIRKKRVRKGKVEYLVKWKGWPPKYSTWEPEEHILDPRLVMAYEEKEERDRASGYRKRGPKPKRLLLQRLYSMDLRSSHKAKGKEKLCFSLTCPLGSGSPEGVVKAGAPELVDKGPLVPTLPFPLRKPRKAHKYLRLSRKKFPPRGPNLESHSHRRELFLQEPPAPDVLQAAGEWEPAAQPPEEEADADLAEGPPPWTPALPSSEVTVTDITANSITVTDREAQAAEGFFRDRSGKF [F234D], for which the “effect of a mutation on the interaction” value is listed as “disrupting interaction”.
